IntAct's records for PubMed 11231575

Molecular target: arp3_bovin ACTR3 (UniProt P61157)

| Substance | effect of a mutation on the interaction |
| --- | --- |
| Src substrate cortactin (Mus musculus), Q60598 W22A | disrupting interaction |
| Src substrate cortactin (Mus musculus), Q60598 D20G;D21A | disrupting interaction |
